{
  "source": "paper PMC11194501",
  "key": {"[1]": {"biological_target": "MBP-Cep63N (fusion of MBP and the N-terminal fragment of Cep63) (human) (UniProt Q96MT8)", "experiment": "ITC"}, "[2]": {"biological_target": "Cep57N (Cep57 residues 56 to 251) (human) (UniProt Q86XR8)", "experiment": "ITC"}, "[3]": {"biological_target": "Cep57S-KR (Cep57S with six Lys and Arg residues of the K/R motif replaced by Ala) (human) (UniProt Q86XR8)", "experiment": "pull-down; His-tagged Cep57S held on a Ni-NTA spin column, 0.1 mg α/β-tubulin added, 4 °C; 1X PBS pH 8.0, 1 mM 2-mercaptoethanol, 20 mM imidazole, 0.1% Triton X100, 10% glycerol; eluted with 400 mM imidazole, SDS-PAGE"}},
  "data": [
    {"substance": "Cep57N (Cep57 residues 56 to 251) (from UniProt Q86XR8 56-251) (domain or fragment)", "values": [
      {"measurement": "Kd", "setting": "[1]", "value": 600, "unit": "nM"}
    ]},
    {"substance": "MBP-Cep63N (fusion of MBP and the N-terminal fragment of Cep63) (from UniProt Q96MT8-2 1-541) (domain or fragment)", "values": [
      {"measurement": "Kd", "setting": "[2]", "value": 500, "unit": "nM"},
      {"measurement": "stoichiometry N", "setting": "[2]", "value": 0.6}
    ]},
    {"substance": "α/β-tubulin (from UniProt P02550 1-451; P02554 1-445) (complex)", "values": [
      {"measurement": "reduction of tubulin binding against Cep57S", "setting": "[3]", "value": 65, "unit": "%"}
    ]}
  ]
}
